{
  "source": "paper PMC6517398",
  "about": "“Selection of a novel DNA aptamer against OFA/iLRP for targeted delivery of doxorubicin to AML cells”",
  "biological_target": "T1, OFA/iLRP extracellular epitope peptide (UniProt P08865)",
  "T1 chain": "NQIQAAFREPR",
  "assay": "flow cytometry of coated beads; PBS (pH not stated), 200 uL, 30 min, room temperature; 2x10^5 coated beads with 20-40 pmol FAM-ssDNA (cells: 40-60 pmol); washed once or twice with PBS",
  "details": "label: FAM (5' in selection primer); single strand, 59 nt",
  "data": [
    {"binder": "AB3 (ssDNA) DNA: TGCGTGTGTAGTGTGTCTGTTGTTTGTATTGTTGTCTATCCTCTTAGGGATTTGGGCGG", "values": [
      {"measurement": "Kd", "value": 101, "unit": "nM"}
    ]}
  ]
}
